Experimental data from patent publication US20230146533A1, “KERATIN BD-10, PREPARATION METHOD THEREFOR AND PHARMACEUTICAL COMPOSITION AND USE THEREOF” (INSTITUTE OF MATERIA MEDICA, CHINESE ACADEMY OF MEDICAL …, priority 2019, published 2023).

Experiments:
[1] = test system: PLO-induced epilepsy in mice; experiment: Pilocarpine (PLO) induced convulsive epilepsy in mice; assay type: in vivo, ICR mice; set-up: mortality rate: unit not given here; settings: for Grade IV seizure rate / mortality rate / Grade II seizure incubation period / Grade III seizure incubation period / Grade IV seizure incubation period / Cases of deaths / Cases of Grade IV: PLO 225 mg/kg i.p.; for Grade IV seizure rate / mortality rate: 10 mice; for Grade II seizure incubation period / Grade III seizure incubation period / Grade IV seizure incubation period: mean ± SEM; for Grade IV seizure incubation period: mice not reaching Grade IV recorded as maximum 1800 seconds; for Cases of deaths / Cases of Grade IV: of 10 mice; for Cases of Grade IV: 30 minutes observation
Protocol: Animals: male ICR mice; Drugs: Pilocarpine HCl (PLO, pilocarpine, pilocarpine hydrochloride), Diazepam (diazepam tablets), protein BD-10.
Experiment grouping: • Model group: • Diazepam 2 mg/kg group; • Protein BD-10, 50 mg/kg group, 200 mg/kg group.
The drug was administered once in the afternoon the day before modeling, PLO-225 mg/kg (modeling agent) was injected intraperitoneally 1 hour after the test drug was administered intragastrically on the day of modeling. And positive drug can be administered once 20 minutes before modeling. Observe for 30 minutes after PLO injection.
Observation indicators: (1)Seizure situation: the time of seizures from Grade II to Grade IV; (2)the time to death.
Seizure grade: Refer to Racine grading standard: Grade 0: No response; Grade I: manifested as twitching of facial muscles or the corners of the mouth; Grade II: can nod; Grade III: twitching of one limb; Grade IV: rigidity or body twitching; Grade V: generalized epilepsy (generalized tonic seizures).
Count the number of Grade IV seizures and deaths in each group of mice in the experiment; Grade II, III and IV incubation period. […] Chi-square test was used for statistics of the number of cases. The mean value and standard error of the incubation period were calculated, and TTEST was used to compare the model group with other groups. P<0.05 was considered as a significant difference.

[2] = test system: acetic acid writhing of ICR mice; experiment: Acetic acid writhing test in ICR mice; assay type: in vivo; settings: for Frequency of writhing / Writhing incubation period: observed within 15 minutes
Protocol: Animals: male ICR mice; Drugs and reagents: aspirin, physiological saline, glacial acetic acid, protein BD-10. Experiment grouping: • Model group; • Aspirin 300 mg/kg group; • Protein BD-10, 50 mg/kg group, 200 mg/kg group.
One day after the experimental animals adapt to the environment, Aspirin 300 mg/kg, protein BD-10 50 mg/kg, 200 mg/kg were given orally one hour in advance, and the administration volume was 10 ml/kg; Then, 0.6% acetic acid solution was injected intraperitoneally, and the incubation period (seconds) and frequency of writhing in the animal was observed within 15 minutes.
Calculate the mean and standard error of the data in each group. Compared with the model group by TTEST, P<0.05 was considered as statistically different.

[3] = test system: phenol red excretion in mice; experiment: Expectorant test, phenol red excretion method in mice; assay type: in vivo, ICR mice; settings: for Phenol red excretion: 2.5% phenol red i.p. one hour later, trachea after 30 minutes, X ± SEM
Protocol: Animals: male ICR mice; Drugs and reagents: Mucosolvan (ambroxol hydrochloride tablets), phenol red, sodium bicarbonate, protein BD-10; Instruments: centrifuge (Sigma-3K15 type), balance (XS105DU type), Microplate tester (BIO-TEK type). Experiment grouping: • Solvent control group; • Mucosolvan 30 mg/kg group; • Protein BD-10, 20 mg/kg group, 50 mg/kg group.
The animals were fasted and water was taken freely 16 hours before the experiment. Orally administered Mucosolvan and different doses of protein BD-10 (administration volume 10 ml/kg) in groups, and the solvent control group was given the same volume of distilled water. One hour later, 2.5% phenol red solution was injected intraperitoneally. Mice were sacrificed by neck dislocation after 30 minutes. Take a trachea from below the thyroid cartilage to the branch of the trachea, and put the trachea into 3 ml 5% NaHCO3 solution and let it stand for 3 hours. Take 1 ml of the supernatant and centrifuge at 3000 rpm for 5 minutes. Measure and record the absorbance at 546 nm. According to the standard curve of phenol red, the excretion of phenol red was calculated.
Record the time point of oral administration, the time point of intraperitoneal injection of 2.5% phenol red solution, and the time point of taking the trachea respectively; The absorbance of each group of samples was measured by the microplate reader at 546 nm, Calculate the excretion of phenol red according to the standard curve of phenol red. Calculate the mean and standard error of the data in each group, and use TTEST to compare the solvent control group with other groups, and P<0.05 is considered as a significant difference.

[4] = BD-10 50 mg/kg oral one hour before 0.6% acetic acid i.p.
[5] = BD-10 200 mg/kg oral one hour before 0.6% acetic acid i.p.

B1: BD-10: recombinant keratin with amino acid sequence SEQ ID NO:1, expressed in E. coli inclusion bodies, band around 55 kD (protein, listed as Bos taurus)
chain: MSCRSYRISPGYSVTRTFSSCSAVAPKTGSRCCITAAPYRGVSCYRGLTGFGSRSVSALGSCGPRIAVGGFRAGSCNRSFGYRSGGVGGLSPPCITTVSVNESLLTPLNLEIDPNAQCVKHEEKEQIKNLNSRFAAFIDKVRFLEQQNKLLETKWQFYQNQRCCESNLEPLFNGYIETLRREAEHVEADGGRLASELNHVQEVLEGYKKKYEEEVALRATAENEFVVLKKDVDCAYLRKSDLEANVEALVEESNFLKRLYDEEIQILNAHISDTSVIVKMDNSRDLNMDCVVAEIKAQYDDIASRSRAEAESWYRNKCEEMKATVIRHGETLRRTKEEINELNRIIQRLTAEIENAKCQRTKLEAAVAEAEQQGEAALNDARCKLAGLEEALQKAKQDMACLLKEYQEVMNSKLGLDIEIATYRRLLEGEEQRLCEGVGSVNVCVSSSRGGVTCGGLTYSTTAGRQIASGPVATGGSITVLAPDSCVPCQPRASSFSCGSSRSVRFA
[1]; BD-10 50 mg/kg dose group, PLO model
  Incubation period of epilepsy Grade III, comparison with model group (in words): statistically different from the model group
[1]; BD-10 50 mg/kg intragastric
  Grade IV seizure rate: 90%
  mortality rate: 0
  Grade II seizure incubation period: 93 ± 4 s
  Grade III seizure incubation period: 166 ± 8 s
  Grade IV seizure incubation period: 871 ± 144 s
  Cases of deaths: 0
  Cases of Grade IV: 9
[1]; BD-10 200 mg/kg intragastric
  Grade IV seizure rate: 70%
  mortality rate: 0
  Grade II seizure incubation period: 90 ± 6 s
  Grade III seizure incubation period: 151 ± 7 s
  Grade IV seizure incubation period: 918 ± 198 s
  Cases of deaths: 0
  Cases of Grade IV: 7
[1]; BD-10, dose not stated, PLO model
  Effect on incubation period of Grade III epilepsy (in words, summary): can significantly prolong the incubation period of Grade III epilepsy
[2]; BD-10 50 mg/kg and 200 mg/kg dose groups, vs model group P<0.05
  Effect on writhing (in words): can significantly reduce the number of writhing mice
[2]; [4]
  Frequency of writhing: 22.7 ± 3.9 times
  Writhing incubation period: 237.4 ± 44.8 s
[2]; [5]
  Frequency of writhing: 19.8 ± 3.7 times
  Writhing incubation period: 251.2 ± 43.3 s
[2]; BD-10, dose not stated
  Effect on number of writhing times (in words, summary): can significantly reduce the number of writhing times
[3]; BD-10 20 mg/kg and 50 mg/kg dose groups, vs solvent control group P<0.05
  Effect on excretion of phenol red (in words): significantly increased the excretion of phenol red
[3]; BD-10 20 mg/kg oral
  Phenol red excretion: 0.746 ± 0.035 µg/mL
[3]; BD-10 50 mg/kg oral
  Phenol red excretion: 0.668 ± 0.063 µg/mL
[3]; BD-10, dose not stated
  Expectorant effect (in words, summary): has obvious expectorant effect
